Assay results reported in the supplement of paper PMC10126150.
± gives the standard deviation of the averaged measurements.

System: ATP
Assay: switch fluorescence ratio, 500 uM ATP over buffer (Cy3 cluster intensity, sum of 5 cycles each) (fold (ratio)); higher = stronger signal-on switching upon ATP binding; sequences stand for … in TCGTCGGCAGCGTCAGATGTGTATAAGAGACAGTTTTTTTTTTTTTTTTTTTTTTTTT…TC
Conditions: aptamer strand: ATP DNA aptamer (quencher-CACCTGGGGGAGTATTGCGGAGGAAGG + anchor), 100 nM annealed; ATP concentration: 500 uM
Procedure, shortened: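 For every switch-domain sequence, the fluorescence ratio is the mean of per-cluster values, each being summed target-cycle Cy3 intensity over summed buffer-cycle Cy3 intensity. Clusters outside 100-1000 RFU were excluded. On a modified Illumina MiSeq flow-cell, the Cy3-labelled switching-strand clusters were annealed to 100 nM quencher-labelled ATP aptamer, imaged in selection buffer and then after 15 min with 500 uM ATP at 22 °C. Five such cycles were run, with NaOH stripping and re-annealing between them.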
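Also: ATP exposure 15 min at 22 °C before imaging.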

TCAATCGACA was tested, and the switch fluorescence ratio was 1 ± 0.041.
TTTGGTATGT showed a switch fluorescence ratio of 1.03 ± 0.057.
With TTAGTGAGGG the switch fluorescence ratio was 0.99 ± 0.042.
TCGGAGAATG gave a switch fluorescence ratio of 1.003 ± 0.01.
Work on TAGGGGCGGG yielded a switch fluorescence ratio of 0.971 ± 0.025.
In the case of TCGCATTTTT, the switch fluorescence ratio is reported as 1.11 ± 0.13.
In the case of CCACCGGGCC, the switch fluorescence ratio is reported as 1.36 ± 0.076.
Work on CCAAAGGGAT yielded a switch fluorescence ratio of 1.28 ± 0.38.
In the case of GAGTAAGGAC, the switch fluorescence ratio is reported as 1.09 ± 0.061.
TAAAAACGGG showed a switch fluorescence ratio of 1.05 ± 0.11.
For TGAAACGTAT, the switch fluorescence ratio was 0.993 ± 0.023.
In the case of GTTTGTGTCA, the switch fluorescence ratio is reported as 0.993 ± 0.052.
CGGGTGAGGG showed a switch fluorescence ratio of 1.017 ± 0.0065.
Work on GTGAGGGACG yielded a switch fluorescence ratio of 0.999 ± 0.081.
CCCAGCACGT was tested, and the switch fluorescence ratio was 1.37 ± 0.04.
TTAAATTTGC gave a switch fluorescence ratio of 1.03 ± 0.011.
GGTTAGGTCG was tested, and the switch fluorescence ratio was 1.06 ± 0.081.
Work on AGATATCATT yielded a switch fluorescence ratio of 0.9848 ± 0.0086.
With CGAATTTACC the switch fluorescence ratio was 1.19 ± 0.15.
With GTGCGCCGGT the switch fluorescence ratio was 1.02 ± 0.036.
Work on TGAACTCTAG yielded a switch fluorescence ratio of 1.02 ± 0.059.
ATATTTACTA gave a switch fluorescence ratio of 1.11 ± 0.11.
In the case of CGATTGCTGG, the switch fluorescence ratio is reported as 0.989 ± 0.069.
Work on AGAAGCTAAG yielded a switch fluorescence ratio of 0.996 ± 0.015.
With TTGGCATCAC the switch fluorescence ratio was 1.06 ± 0.045.
Work on TTTGATATAG yielded a switch fluorescence ratio of 0.994 ± 0.034.
In the case of CAAAGTTGGA, the switch fluorescence ratio is reported as 1.01 ± 0.017.
TGGGGGGTTG gave a switch fluorescence ratio of 1.02 ± 0.049.
For GAAACTTGCA, the switch fluorescence ratio was 1.075 ± 0.0066.
Sequence CGTGAATTTG has a switch fluorescence ratio of 0.987 ± 0.026.
TGGGAGAAGT gave a switch fluorescence ratio of 0.983 ± 0.011.
In the case of TGGTACACGT, the switch fluorescence ratio is reported as 0.989 ± 0.014.
In the case of GAGTGAGTAG, the switch fluorescence ratio is reported as 0.9794 ± 0.0059.
With AAGACCTTAT the switch fluorescence ratio was 1.05 ± 0.011.
With TATTAGACTA the switch fluorescence ratio was 1.02 ± 0.022.
Sequence AGTAAAATGG has a switch fluorescence ratio of 1.01 ± 0.038.
Sequence AGTCTAAACT has a switch fluorescence ratio of 1.02 ± 0.016.
For TTCGCCAGAT, the switch fluorescence ratio was 1.04 ± 0.035.
With TTGGGGCCAG the switch fluorescence ratio was 1.09 ± 0.12.
With TTTGAGCTCT the switch fluorescence ratio was 0.97 ± 0.014.
For CGGTTGTCGA, the switch fluorescence ratio was 1.01 ± 0.023.
GTGAGGTGCA was tested, and the switch fluorescence ratio was 1.01 ± 0.052.
For GGGGTAGATG, the switch fluorescence ratio was 0.9985 ± 0.0033.
GGGCAGTTTT was tested, and the switch fluorescence ratio was 0.991 ± 0.023.
Sequence TAGGAGGTTT has a switch fluorescence ratio of 1.067 ± 0.0013.
Work on ACGGGGGTCC yielded a switch fluorescence ratio of 1.02 ± 0.025.
For GGGGTAGCGA, the switch fluorescence ratio was 0.992 ± 0.051.
TTTGTAACAC was tested, and the switch fluorescence ratio was 1.25 ± 0.36.
Sequence ATTGTATTTT has a switch fluorescence ratio of 0.979 ± 0.022.
AGGGGTAGGC gave a switch fluorescence ratio of 0.9893 ± 0.0036.
Sequence TGAATCAATT has a switch fluorescence ratio of 1.06 ± 0.026.
For TTTATTGCAT, the switch fluorescence ratio was 1.018 ± 0.0082.
In the case of AGGTTGTAAT, the switch fluorescence ratio is reported as 1 ± 0.016.
TTTAATTGCC showed a switch fluorescence ratio of 0.993 ± 0.081.
With ATGAGAGAAT the switch fluorescence ratio was 1.0144 ± 0.0004.
For CTTAGGGAGC, the switch fluorescence ratio was 0.969 ± 0.085.
Sequence GGTTTGCTGT has a switch fluorescence ratio of 0.99034 ± 0.00027.
In the case of GCGGCGGCGT, the switch fluorescence ratio is reported as 1.002 ± 0.0023.
GTGGGGAATC showed a switch fluorescence ratio of 1.02 ± 0.082.
Work on AAAGCTAGGA yielded a switch fluorescence ratio of 0.979 ± 0.036.
For ATAGCTTGTA, the switch fluorescence ratio was 0.995 ± 0.037.
TTTTGTGACA showed a switch fluorescence ratio of 1 ± 0.027.
Sequence CGAGGTGAAG has a switch fluorescence ratio of 0.9922 ± 0.0049.
TTGGCCGGGT showed a switch fluorescence ratio of 1.042 ± 0.0059.
GCACGGGGCA was tested, and the switch fluorescence ratio was 1.01 ± 0.023.
Sequence ATGGGGATTA has a switch fluorescence ratio of 0.9956 ± 0.0092.
With TTAAGTGGGG the switch fluorescence ratio was 1.02 ± 0.011.
With AGGAATCTAG the switch fluorescence ratio was 0.967 ± 0.03.
AAAGACAGTG was tested, and the switch fluorescence ratio was 1.01 ± 0.058.
GCCAGGCTGG was tested, and the switch fluorescence ratio was 1.04 ± 0.021.
In the case of TAGTTTCCCA, the switch fluorescence ratio is reported as 0.971 ± 0.024.
GATTCTGATT showed a switch fluorescence ratio of 0.9756 ± 0.0036.
In the case of CGCTCAGTTG, the switch fluorescence ratio is reported as 1.13 ± 0.0039.
With TTCGGAGCGG the switch fluorescence ratio was 1.34 ± 0.24.
Work on GTGATTTATT yielded a switch fluorescence ratio of 0.988 ± 0.019.
Sequence CCTTCTTTTT has a switch fluorescence ratio of 1.06 ± 0.12.
GAGACGGAAT gave a switch fluorescence ratio of 1.06 ± 0.025.
In the case of CGGGTATGGT, the switch fluorescence ratio is reported as 1 ± 0.027.
TGTGGGGAGC was tested, and the switch fluorescence ratio was 0.995 ± 0.043.
ACTATGGGGG gave a switch fluorescence ratio of 0.995 ± 0.036.
TGGGGAAGGG was tested, and the switch fluorescence ratio was 0.989 ± 0.039.
CGTTAAGGCT was tested, and the switch fluorescence ratio was 0.973 ± 0.015.
Sequence AGTGGCACTG has a switch fluorescence ratio of 0.996 ± 0.0088.
AACCCGAGCC gave a switch fluorescence ratio of 1.196 ± 0.011.
GGAGGCTGAG showed a switch fluorescence ratio of 0.993 ± 0.011.
For TAGGGGGAAG, the switch fluorescence ratio was 0.9792 ± 0.0033.
For ATGGAAAAGA, the switch fluorescence ratio was 0.978 ± 0.016.
For GAAAATTGAG, the switch fluorescence ratio was 1 ± 0.015.
With TTGTAACCAG the switch fluorescence ratio was 1.0005 ± 0.001.
Sequence TTTTATTACT has a switch fluorescence ratio of 2.27 ± 1.8.
Work on TTGGTGTTGC yielded a switch fluorescence ratio of 0.9916 ± 0.0057.
AGGGGTTGAG showed a switch fluorescence ratio of 0.998 ± 0.036.
GTGGAAGTGG was tested, and the switch fluorescence ratio was 1.02 ± 0.034.
With GGCTTTTTAC the switch fluorescence ratio was 1.06 ± 0.036.
Work on AGATATGTTT yielded a switch fluorescence ratio of 0.986 ± 0.025.
TTTTTTAGCC was tested, and the switch fluorescence ratio was 1.02 ± 0.091.
TTGTTCGTAG was tested, and the switch fluorescence ratio was 0.981 ± 0.034.
For ATGTGAGGGT, the switch fluorescence ratio was 1.017 ± 0.0039.
TTGGGCCTGA was tested, and the switch fluorescence ratio was 1.002 ± 0.0032.
Sequence AATATGGGGT has a switch fluorescence ratio of 1.01 ± 0.014.
